Source: US20220089784A1 (University of California, published 2022)

T1: BoNT/C1 holotoxin (Clostridium botulinum, UniProt P18640 2-1291)
T1 sequence: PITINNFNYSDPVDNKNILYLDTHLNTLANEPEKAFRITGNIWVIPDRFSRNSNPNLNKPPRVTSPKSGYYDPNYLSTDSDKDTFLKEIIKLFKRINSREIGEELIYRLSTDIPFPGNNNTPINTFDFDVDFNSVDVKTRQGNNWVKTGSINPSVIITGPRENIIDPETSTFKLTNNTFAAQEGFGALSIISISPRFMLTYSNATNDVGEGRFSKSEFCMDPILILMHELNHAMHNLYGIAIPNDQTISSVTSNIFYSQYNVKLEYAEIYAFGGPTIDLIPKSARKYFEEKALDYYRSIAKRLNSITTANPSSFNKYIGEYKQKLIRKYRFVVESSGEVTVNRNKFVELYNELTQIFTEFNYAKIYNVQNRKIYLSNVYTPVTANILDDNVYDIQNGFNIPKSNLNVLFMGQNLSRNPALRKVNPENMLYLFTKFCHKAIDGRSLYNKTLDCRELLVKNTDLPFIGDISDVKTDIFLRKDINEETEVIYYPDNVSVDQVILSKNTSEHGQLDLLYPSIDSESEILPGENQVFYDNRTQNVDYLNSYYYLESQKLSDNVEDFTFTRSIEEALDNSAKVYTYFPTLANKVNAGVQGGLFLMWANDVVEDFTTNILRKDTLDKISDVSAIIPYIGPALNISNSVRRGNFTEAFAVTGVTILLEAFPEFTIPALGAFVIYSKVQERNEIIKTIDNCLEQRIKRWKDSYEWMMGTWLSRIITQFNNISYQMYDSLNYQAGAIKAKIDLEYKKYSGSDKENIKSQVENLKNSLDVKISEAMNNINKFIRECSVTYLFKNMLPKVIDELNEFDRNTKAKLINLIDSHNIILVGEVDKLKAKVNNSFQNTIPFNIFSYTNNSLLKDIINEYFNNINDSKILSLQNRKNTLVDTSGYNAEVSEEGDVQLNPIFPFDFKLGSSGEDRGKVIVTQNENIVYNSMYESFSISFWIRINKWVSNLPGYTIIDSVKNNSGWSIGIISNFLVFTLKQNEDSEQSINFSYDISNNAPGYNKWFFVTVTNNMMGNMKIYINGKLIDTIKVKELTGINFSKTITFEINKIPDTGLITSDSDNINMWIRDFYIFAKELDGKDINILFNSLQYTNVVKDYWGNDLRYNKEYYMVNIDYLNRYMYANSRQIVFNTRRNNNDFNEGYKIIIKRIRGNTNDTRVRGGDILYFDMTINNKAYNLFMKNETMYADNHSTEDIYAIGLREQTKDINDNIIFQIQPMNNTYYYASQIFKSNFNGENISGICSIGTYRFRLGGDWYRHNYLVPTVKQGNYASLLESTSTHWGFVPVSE

T2: BoNT/D (Clostridium botulinum, UniProt P19321 2-1276)
T2 sequence: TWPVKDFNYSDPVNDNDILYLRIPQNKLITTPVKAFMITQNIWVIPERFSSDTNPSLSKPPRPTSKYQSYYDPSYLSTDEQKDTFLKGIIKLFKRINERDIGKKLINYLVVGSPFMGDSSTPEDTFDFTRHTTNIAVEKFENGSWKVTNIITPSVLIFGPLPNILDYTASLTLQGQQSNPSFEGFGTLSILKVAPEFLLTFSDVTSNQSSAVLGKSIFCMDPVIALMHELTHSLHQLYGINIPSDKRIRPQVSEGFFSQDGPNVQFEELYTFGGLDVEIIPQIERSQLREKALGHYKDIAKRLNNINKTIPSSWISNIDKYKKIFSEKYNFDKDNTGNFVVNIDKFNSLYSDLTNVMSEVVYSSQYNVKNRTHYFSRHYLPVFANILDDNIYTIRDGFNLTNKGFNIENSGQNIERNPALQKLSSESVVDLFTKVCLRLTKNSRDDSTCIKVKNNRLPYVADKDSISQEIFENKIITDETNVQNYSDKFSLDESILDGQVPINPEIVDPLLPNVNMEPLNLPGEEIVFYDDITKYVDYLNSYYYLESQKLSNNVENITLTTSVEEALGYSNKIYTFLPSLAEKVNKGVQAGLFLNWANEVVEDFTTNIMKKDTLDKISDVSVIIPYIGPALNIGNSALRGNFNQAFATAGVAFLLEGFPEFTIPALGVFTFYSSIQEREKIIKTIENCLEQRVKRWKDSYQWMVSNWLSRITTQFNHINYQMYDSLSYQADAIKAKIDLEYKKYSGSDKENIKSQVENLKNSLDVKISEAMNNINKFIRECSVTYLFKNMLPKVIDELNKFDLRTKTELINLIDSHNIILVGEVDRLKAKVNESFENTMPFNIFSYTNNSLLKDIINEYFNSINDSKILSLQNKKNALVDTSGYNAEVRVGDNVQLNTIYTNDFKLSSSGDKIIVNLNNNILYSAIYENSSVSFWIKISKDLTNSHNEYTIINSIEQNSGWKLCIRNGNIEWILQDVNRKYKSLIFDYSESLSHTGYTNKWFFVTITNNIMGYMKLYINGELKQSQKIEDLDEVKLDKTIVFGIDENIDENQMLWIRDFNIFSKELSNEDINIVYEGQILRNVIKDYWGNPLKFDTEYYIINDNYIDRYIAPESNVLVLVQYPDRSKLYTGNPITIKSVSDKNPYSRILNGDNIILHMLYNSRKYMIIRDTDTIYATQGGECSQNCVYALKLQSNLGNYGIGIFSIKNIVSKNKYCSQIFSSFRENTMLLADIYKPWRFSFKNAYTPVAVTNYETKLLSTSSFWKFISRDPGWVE

B1: 8DC13 scFv (scFv, V domains shown)
VH: QVQLVQSGAEVKKPGASVKVSCKASGYTFTGYYIHWVRQAPGQGLEWMGRINPNSGGANYAHKFQGRVTMTRDTSSNTAYMEVSRLKSDDTAVYYCARRRAVANLDYHYYGMDVWGQGTTVTVSS
VL: DIVMTQSPSTLSASVGARVTITCRASQNINTYLNWYHQKPGKAPKLLIYAASSLQSGVPSRFSGSGSGTDFTLTISSLQPEDFATYYCQQSYSTPHTFGGGTKLEIK
notes: human
B2: 8DC14 scFv (scFv, V domains shown)
VH: QVQLVQSGGGVVQPGRSLRLSCVASGFTFSSYTMHWVRQAPGEGLEWVAGISNDGRNQYYSDSVKGRATISRDNSKDTLYLQMHSLRAEDTAVYYCAKANYHFILATTFHSWGQGTLVTVSS
VL: DIVMTQSPSSVSASVGDRVTITCRASQGISSWLAWYQQKPGKAPKLLIYAASSLQSGVPSRFSGSGSGTDFTLTISRLQPEDVATYYCQRYNSLPFTFGGGTKLEIK
notes: human
B3: 8DC10 scFv (scFv, V domains shown)
VH: QVQLVQSGAEAKKPGASVKLSCQASGYTFTGYAIHWVRQAPGQRLEWLGWINCVNGNTKYSPKLPGRVTITRDTSATTAYLELNSLTSEDTAVYYCARSMLVAARVYYYYGMDVWGQGTMVTVSS
VL: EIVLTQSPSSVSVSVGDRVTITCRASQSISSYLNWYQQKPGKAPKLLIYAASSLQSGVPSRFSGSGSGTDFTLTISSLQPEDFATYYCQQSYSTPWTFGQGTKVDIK
notes: human
B4: 8DC12 scFv (scFv, V domains shown)
VH: QVQLVQSGGGVVQPGRSLRLSCAASGFTFSSYGMHWVRQAPGKGLEWVAAISYDGSNKYYADSVKGRFTISRDNSKNTLYLQMNSLRAEDTAVYYCAKGEHFVVVTAFATWGQGTLVTVSS
VL: DIVMTQSPSFLSASIGDRVTITCRASQSISNWLAWYQQKPGKAPKVLVYKASSLENGVPSRFSGSGSGTDFTLTITSLQPDDFATYYCQQYNAYPLTFGGGTKVEIK
notes: human
B5: 8DC8.6 scFv (scFv, V domains shown)
VH: QVQLQQSGPGLVKPSETLSLTCTVSGGSISSAGYSWSWIRQSPGKGLECLGYIYQTGSTFYNLSLKGRVTMSLDRSKNQISLRLTSVVAADTAVYYCARVVGVYPGWFDSWGQGTLVTVSS
VL: DIQMTQSPSSLSASVGDRVTITCRASQGVSTDLAWYQQKPGRAPKLLIYRASSLQSGVPSRFSGSGSGTDFTLTISSLQPDDLATYYCQHYESYSPWTFGQGTQGEIK
notes: human
B6: 8DC11 scFv (scFv, V domains shown)
VH: QVQLVESGPGLVKPSQTLSLSCTVSGGSVNHYYWNWIRQPPGKGLEWIGYIFYNGRTNYNPSLKSRVTMSVDTSKNQISLKLRSVTAADTAVYYCAREGARGYCSSTSCHDAFDIWGRGTLVTVSS
VL: EIVLTQSPSFLSASVGDRVTITCRASQGIRNDLAWFQQKPGKAPKLLIYATSTLQSGVPSRFSGSGSGTDFTLTISSLQPEDFADYYCQQAASFPLTFGGGTKVDIK
notes: human
B7: 8DC7 scFv (scFv, V domains shown)
VH: QVQLVQSGGRLVRPGGSLRLSCAASGFVFSNYGMHWVRQAPGKGLEWVAFLTHGGTNKYYSDSVKGRLTISRDNAKSTLFLEVNSLRVEDTAIYYCVKEGQLDSKYYFDSWGQGTLVTVSS
VL: EIVLTQSPSSLSASVGDRVTITCRASQSISSYLAWYQQKPGKAPELLIYAASTLQSGVPSRFSGSGSGTDFTLTISSVQPEDFATYYCQQSYSTPFTFGQGTKVEIK
notes: human

What was measured:
[1] = molecular target: T1, BoNT/C1 holotoxin; assay: yeast scFv FACS
[2] = molecular target: T2, BoNT/D; assay: yeast scFv FACS

Binder | binding result [1] | binding result [2]
B1 | no binding (tested: ~1 µM) | binds
B2 | no binding (tested: ~1 µM) | binds
B3 | no binding (tested: ~1 µM) | binds
B4 | no binding (tested: ~1 µM) | binds
B5 | no binding (tested: ~1 µM) | binds
B6 | no binding (tested: ~1 µM) | binds
B7 | no binding (tested: ~1 µM) | binds
